Earlier results as cited in paper PMC5193440.

Target: Cys30 (UniProt position 49, FFSFFCPHCYQ)
Details: reduced active site (dithiol form)

For “DsbA (thiol:disulfide interchange protein, EcDsbA) (Escherichia coli)”, which pKa is on record?
Its pKa is 3.3 ± 0.09.

Tested on: Cys
Details: not stated

With “DsbA1 (NmDsbA1) (Neisseria meningitidis)” as the substance, how does the pKa read?
Its pKa is 3.0.

Which pKa does the source give for “DsbA1 (WpDsbA1, alpha-DsbA1), wild type (Wolbachia pipientis)” here?
Its pKa is 4.7 ± 0.08.

With DsbA (KpDsbA) (Klebsiella pneumoniae) as the substance, how does the pKa read?
Its pKa is 3.2.

For “DsbA (MtbDsbA, Rv2969c) (Mycobacterium tuberculosis)”, which pKa is on record?
The pKa was 4.2 ± 0.2.

With DsbA (SaDsbA) (Staphylococcus aureus) as the substance, how does the pKa read?
The pKa was 3.4 ± 0.07.

With “DsbA (SeDsbA) (Salmonella enterica (inferred from the abbreviation; the article only calls it an enterobacterial DsbA))” as the substance, how does the pKa read?
The pKa was 3.3 ± 0.06.

With DsbA (VcDsbA, TcpG) (Vibrio cholerae) as the substance, how does the pKa read?
Its pKa is 5.1.
